Key:
[1] = biological target: T1, Human Upf1-CH-HD (115-914 amino acids) (human) (UniProt Q92900)
T1 sequence: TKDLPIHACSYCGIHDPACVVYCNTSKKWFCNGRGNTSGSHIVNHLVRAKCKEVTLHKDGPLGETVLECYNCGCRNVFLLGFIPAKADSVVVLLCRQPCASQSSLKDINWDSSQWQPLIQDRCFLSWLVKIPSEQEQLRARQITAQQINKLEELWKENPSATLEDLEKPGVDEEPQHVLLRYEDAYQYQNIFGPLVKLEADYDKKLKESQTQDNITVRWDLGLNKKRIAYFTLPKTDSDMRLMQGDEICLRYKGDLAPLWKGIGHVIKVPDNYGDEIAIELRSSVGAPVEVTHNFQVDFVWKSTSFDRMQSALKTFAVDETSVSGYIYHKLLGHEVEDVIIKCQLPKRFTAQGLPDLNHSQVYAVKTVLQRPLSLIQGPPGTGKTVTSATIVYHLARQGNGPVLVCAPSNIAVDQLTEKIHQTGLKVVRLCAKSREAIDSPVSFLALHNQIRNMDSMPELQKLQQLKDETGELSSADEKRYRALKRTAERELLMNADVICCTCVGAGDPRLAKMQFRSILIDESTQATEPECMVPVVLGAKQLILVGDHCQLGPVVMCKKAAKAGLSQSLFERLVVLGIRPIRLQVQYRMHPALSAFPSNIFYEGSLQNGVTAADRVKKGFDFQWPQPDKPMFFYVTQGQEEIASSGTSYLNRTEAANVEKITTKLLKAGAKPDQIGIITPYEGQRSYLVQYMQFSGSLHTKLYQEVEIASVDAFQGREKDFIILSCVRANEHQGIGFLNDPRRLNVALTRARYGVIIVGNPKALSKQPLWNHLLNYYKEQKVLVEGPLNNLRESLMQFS

[2] = biological target: T1, Human Upf1-CH-HD (115-914 amino acids) (human); remark: listed apart in the source
[3] = biological target: T1, Human Upf1-CH-HD (115-914 amino acids) (human); remark: listed apart in the source

Human Upf2 (761-1227 amino acids) (from UniProt Q9HAU5 761-1227) (domain or fragment)
activity ratio Ac=u/(u+b) (unwinding events over unwinding plus binding events), magnetic tweezers on a DNA hairpin; Upf1-CH-HD alone Ac=49% [1]: 81%
share of Upf1-CH-HD/Upf2 binding events with a normal rising edge but a falling edge interrupted by blocking (magnetic tweezers, DNA hairpin) [2]: 76%
processivity factor fp (enzymes reaching the hairpin apex over total bursts), magnetic tweezers on the 1.2 kb DNA hairpin (fraction (24 of 25 bursts)) [3]: 0.96

— paper PMC4506499
